# Values of other authors in publication PMC6893859 (Regulatory toxicology and pharmacology : RTP, 2018).
# Columns and labels:
# patients = conditions: human, in vivo
# humans = conditions: human, in vivo
Substance,safety and tolerability (patients),tolerability (humans)
CER-001: complex between recombinant human ApoA-I and dipalmitoyl phosphatidylcholine and sphingomyelin,safe and well tolerated,
CSL-112: reformulated reconstituted and purified ApoA1 (from CSL-111),,well tolerated
